experiment: soluble on expression in E. coli; label from the status in PepcDB or PDB records

Sequence | soluble on expression in E. coli
MMKIAIIGSGISGLTCGYYLHRYHDITLFEANDYIGGHTATVDVELAGKPYAVDTGFIVYNDRTYPNFIKMMDEIGVQGKPTQMSFSVRNDANGLEYNGHTLTTLFAQKRNWLNPKFYRFIAEILRFNRLTKACVDNQLANEQTLGDFLAQHQFSEYFCENYILPMGAAIWSSSLADMRAFPLMFFARFFLNHGLLDVTNRPQWYVIPGGSRSYIAPLTQGFGDRIRLNSAVTQVKRLPSGVEVVVNGRSERFDEVIFACHSDQALAMLSDASSTEQQLLSALAYQANEVVLHTDTRLLPKRKAAWAAWNYWLKGEANQETRLPSLTYNMNILQHIEAPETFCVTLNSSEDIDPSKILRRFTYHHPVFSRPAIEAQQKKAQISGVNHTWFCGAYWHNGFHEDGVRSALDVVTQLEAYAQRSEQGAALEHHHHHH | soluble
MSQRKAQNDYQKIIRSLSDRIVEAQTPIRVLDAIKWDDGIRQDFLKGRGKHAPKVDRGYYDSRPLAFDASAKKQEFQNIERDITRQLGQFNPVGQIMRRMCKEYRMVIRMLEARGTPDLGLISQELYGSASDAFHAGDPTLADLGLMLSDYLNNIADRGDLKDEPKTLTAKEVVPILQARLNTVFGEEEGTIRVFESDGIVADAAAGADYIKVRADALFNERDVRALEVHEGLVHVGTTLNGLSQPICTFLAKGPPSSTVTQEGLAILMEVIAFASYPTRLRKLTNRTRAIHMAEEGADFLDVFHFYREQGYSLEDSYQNASRVFRGSTPDGLPFTKDLSYLKGFILIYNYIQLAVRKGKLEQIPLLFCGKTTLEDMRTLRQLVDEGLVAPPKYLPPQFRDLNALSAWMCFSNFLNHLSLDRIEADYANILAAALEHHHHHH | not soluble
MENNTNQENSDALENVSFACIRPEILYFGTPVVLISTIDREGKVNLAPISSAWALGYSVVMGIGTESKTMENLRETGECTLNFPEGALWESVERLAPLTGKYPVPQDKADKFRFESNKFGVAGLTPCDSEVVKPPRVLECRLQMEACVKSVRRISEPDVQAGIVEVKVVRVHARNDLIIDGKYIDPKQWKPLIYSFRHYFTLGCDLGKTFRSKI | not soluble
MGSDKIHHHHHHMNLEDIFSILPEKIEREVKRISDYNNLQEIRIKVNKPLIIQIGKKEIISNYIATKEDLKKTFNVMSGYSIYSVEDELRQGYITIKGGHRVGICGDCVLEENKIKTIKNISSLNIRICKEVTGCSNSIMKKIVYGNTVLNTIIISPPNCGKTTLLRDITRNISYGINSIQFRGKKVCVIDERSEIGACLNGVNQMDIGIRTDILDNCPKSIGIMMAIRSMAPEVIICDEIGTYDDIKSILTAVNCGVKLITTIHGFGIEDLNSRDVFKDAIKNNVFERAIVLSGRSGVGTVEYIYDFYTKERERGL | not soluble
MHHHHHHSSGRENLYFQGASEALKVVARCRPLSRKEEAAGHEQILTMDVKLGQVTLRNPRAAPGELPKTFTFDAVYDASSKQADLYDETVRPLIDSVLQGFNGTVFAYGQTGTGKTYTMQGTWVEPELRGVIPNAFEHIFTHISRSQNQQYLVRASYLEIYQEEIRDLLSKEPGKRLELKENPETGVYIKDLSSFVTKNVKEIEHVMNLGNQTRAVGSTHMNEVSSRSHAIFIITVECSERGSDGQDHIRVGKLNLVDLAGSERQNKAGPNTAGGAATPSSGGGGGGGGSGGGAGGERPKEASKINLSLSALGNVIAALAGNRSTHIPYRDSKLTRLLQDSLGGNAKTIMVATLGPASHSYDESLSTLRFANRAKNIKNKPRVNEDPKDTLLREF | soluble
MKVSELMTTDPITVSIDDTFSKVMSKMNETGIHQLPVMDGDRYAGMITYSDLLKKRSIQVKSKISNYTISTPTLNADDDVLEAVRLIKDTGLSALPVFQKGKLVGIISRTDIIKNLPQIVDVRDVRIFQIMSSDPIYVYEDDDIEEAFDSMRMLNEVEIPVASRDEKLSGIIRLNSILNILYRQKEKIKYGGYGEKEPVEIKCKSLMDPPVSVDRYAGIDEAVKLMMQYSLHIMPVTDSGKIVGIVDFSDLINMIKTESKEGILIEISGLDVYDEDLYDIAFELSERFLDKFSKMTDVSQGKLLIHVMKYKTQGSTKYSIRTRISAPPLFLVQNGSGWNFAEVLGEIFDRYEERIKKMKEKQ | not soluble
YPHHLGTSPRHPLNSGTEMAGGAWGRLACYLEFLKKEELKEFQLLLANKAHSRSSSGETPAQPEKTSGMEVASYLVAQYGEQRAWDLALHTWEQMGLRSLCAQAQEGAGHSPSFPYSPSEPHLGSPSQPTSTAVLMPWIHELPAGCTQGSERRVLRQLPDTSGRRWREISASLLYQALPSSPDHESPSQESPNAPTSTAVLGSWGSPPQPSLAPREQEAPGTQWPLDETSGIYYTEIREREREKSEKGRPPWAAVVGTPPQAHTSLQPHHHPWEPSVRESLCSTWPWKNEDFNQKFTQLLLLQRPHPRSQDPLVKRSWPDYVEENRGHLIEIRDLFGPGLDTQEPRIVILQGAAGIGKSTLARQVKEAWGRGQLYGDRFQHVFYFSCRELAQSKVVSLAELIGKDGTATPAPIRQILSRPERLLFILDGVDEPGWVLQEPSSELCLHWSQPQPADALLGSLLGKTILPEASFLITARTTALQNLIPSLEQARWVEVLGFSESSRKEYFYRYFTDERQAIRAFRLVKSNKELWALCLVPWVSWLACTCLMQQMKRKEKLTLTSKTTTTLCLHYLAQALQAQPLGPQLRDLCSLAAEGIWQKKTLFSPDDLRKHGLDGAIISTFLKMGILQEHPIPLSYSFIHLCFQEFFAAMSYVLEDEKGRGKHSNCIIDLEKTLEAYGIHGLFGASTTRFLLGLLSDEGEREMENIFHCRLSQGRNLMQWVPSLQLLLQPHSLESLHCLYETRNKTFLTQVMAHFEEMGMCVETDMELLVCTFCIKFSRHVKKLQLIEGRQHRSTWSPTMVVLFRWVPVTDAYWQILFSVLKVTRNLKELDLSGNSLSHSAVKSLCKTLRRPRCLLETLRLAGCGLTAEDCKDLAFGLRANQTLTELDLSFNVLTDAGAKHLCQRLRQPSCKLQRLQLVSCGLTSDCCQDLASVLSASPSLKELDLQQNNLDDVGVRLLCEGLRHPACKLIRLGLDQTTLSDEMRQELRALEQEKPQLLIFSRRKPSVMTPTEGLDTGEMSNSTSSLKRQRLGSERAASHVAQANLKLLDVSKIFPIAEIAEESSPEVVPVELLCVPSPASQGDLHTKPLGTDDDFWGPTGPVATEVVDKEKNLYRVHFPVAGSYRWPNTGLCFVMREAVTVEIEFCVWDQFLGEINPQHSWMVAGPLLDIKAEPGAVEAVHLPHFVALQGGHVDTSLFQMAHFKEEGMLLEKPARVELHHIVLENPSFSPLGVLLKMIHNALRFIPVTSVVLLYHRVHPEEVTFHLYLIPSDCSIRKELELCYRSPGEDQLFSEFYVGHLGSGIRLQVKDKKDETLVWEALVKPGDLMPATTLIPPARIAVPSPLDAPQLLHFVDQYREQLIARVTSVEVVLDKLHGQVLSQEQYERVLAENTRPSQMRKLFSLSQSWDRKCKDGLYQALKETHPHLIMELWEKGSKKGLLPLSS | soluble
MAHHHHHHMEMGGDIVGNIMMLELETFSDEEAAYLTSPDAPHSHIVDEVVEALFENVCTAPRRCSWNTPSVRPEWKEEFRFAGEWWLSMRVLPATVNPNEYHPPLIPFLLRNVQTENQFIADLALHMRQRSSVLSLLHMDHISITPDRASVLLFEGILRNEAQNLECLSLSFCEVGAATLLLILCGLNQCRSIQPQLRYLNLSYNWIDASCSNMMAMLLERTSIRRLSLHGNRFGGSDITSFYDFLLQGCSLLEELDLSYTALTCAEVCALISCLPRMRNLEVLLLDGVEVPDNKAAALSTAIRKSNLIHVSLKGIIACNGEAYLHRIHKACQRNRAARDFLKDRSTLRYFSEGGSFFEAFARRTCEMQRLDDRALPVTYRPFVTNDPSLLPAKNL | not soluble
MGSSHHHHHHSSGLVPRGSHMASMKQIKKLLVANRGEIAIRIFRAAAELDISTVAIYSNEDKSSLHRYKADESYLVGSDLGPAESYLNIERIIDVAKQANVDAIHPGYGFLSENEQFARRCAEEGIKFIGPHLEHLDMFGDKVKARTTAIKADLPVIPGTDGPIKSYELAKEFAEEAGFPLMIKATSGGGGKGMRIVREESELEDAFHRAKSEAEKSFGNSEVYIERYIDNPKHIEVQVIGDEHGNIVHLFERDCSVQRRHQKVVEVAPSVGLSPTLRQRICDAAIQLMENIKYVNAGTVEFLVSGDEFFFIEVNPRVQVEHTITEMVTGIDIVKTQILVAAGADLFGEEINMPQQKDITTLGYAIQCRITTEDPLNDFMPDTGTIIAYRSSGGFGVRLDAGDGFQGAEISPYYDSLLVKLSTHAISFKQAEEKMVRSLREMRIRGVKTNIPFLINVMKNKKFTSGDYTTKFIEETPELFDIQPSLDRGTKTLEYIGNVTINGFPNVEKRPKPDYELASIPTVSSSKIASFSGTKQLLDEVGPKGVAEWVKKQDDVLLTDTTFRDAHQSLLATRVRTKDMINIASKTADVFKDGFSLEMWGGATFDVAYNFLKENPWERLERLRKAIPNVLFQMLLRASNAVGYKNYPDNVIHKFVQESAKAGIDVFRIFDSLNWVDQMKVANEAVQEAGKISEGTICYTGDILNPERSNIYTLEYYVKLAKELEREGFHILAIKDMAGLLKPKAAYELIGELKSAVDLPIHLHTHDTSGNGLLTYKQAIDAGVDIIDTAVASMSGLTSQPSANSLYYALNGFPRHLRTDIEGMESLSHYWSTVRTYYSDFESDIKSPNTEIYQHEMPGGQYSNLSQQAKSLGLGERFDEVKDMYRRVNFLFGDIVKVTPSSKVVGDMALYMVQNDLDEQSVITDGYKLDFPESVVSFFKGEIGQPVNGFNKDLQAVILKGQEALTARPGEYLEPVDFEKVRELLEEEQQGPVTEQDIISYVLYPKVYEQYIQTRNQYGNLSLLDTPTFFFGMRNGETVEIEIDKGKRLIIKLETISEPDENGNRTIYYAMNGQARRIYIKDENVHTNANVKPKADKSNPSHIGAQMPGSVTEVKVSVGETVKANQPLLITEAMKMETTIQAPFDGVIKQVTVNNGDTIATGDLLIEIEKATD | soluble
MTTMNPFLVQSTLPYLAPHFDQIANHHYRPAFDEGMQQKRAEIAAIALNPQMPDFNNTILALEQSGELLTRVTSVFFAMTAAHTNDELQRLDEQFSAELAELANDIYLNGELFARVDAVWQRRESLGLDSESIRLVEVIHQRFVLAGAKLAQADKAKLKVLNTEAATLTSQFNQRLLAANKSGGLVVNDIAQLAGMSEQEIALAAEAAREKGLDNKWLIPLLNTTQQPALAEMRDRATREKLFIAGWTRAEKNDANDTRAIIQRLVEIRAQQATLLGFPHYAAWKIADQMAKTPEAALNFMREIVPAARQRASDELASIQAVIDKQQGGFSAQPWDWAFYAEQVRREKFDLDEAQLKPYFELNTVLNEGVFWTANQLFGIKFVERFDIPVYHPDVRVWEIFDHNGVGLALFYGDFFARDSKSGGAWMGNFVEQSTLNKTHPVIYNVCNYQKPAAGEPALLLWDDVITLFHEFGHTLHGLFARQRYATLSGTNTPRDFVEFPSQINEHWATHPQVFARYARHYQSGAAMPDELQQKMRNASLFNKGYEMSELLSAALLDMRWHCLEENEAMQDVDDFELRALVAENMDLPAIPPRYRSSYFAHIFGGGYAAGYYAYLWTQMLADDGYQWFVEQGGLTRENGLRFREAILSRGNSEDLERLYRQWRGKAPKIMPMLQHRGLNI | soluble
MDIKKFVARRKALQISQIKLSAGICTQATLSKFERRGRVPSLAILEQLCARLGLTVDELNEDQASSVTQMRQELDHIERQLMMEDYQVVLQALNRIAVSEIAAVPLRMQYYYLSGLLKSLINGAVSDVCFDFDQILDDLDQTHETVFTPLAYVGLGVMYSRLSELAKAQFYFEKVHQAVKQALVNGDDQDYLRLLTMIFYTAEYEATREDFTTSNGLINDGVSLCSEQHVTYYLPRLKYLATANAIQQCQPDEQIQQLLSETVAFARINHNQVVEVKAAALRRRYLQARKHA | not soluble
MEINIFNTNKKYDVIYADPPWRYNDRKCNGACEHHYDTMTLEEIKKLPIKELCEKDCVLFLWTTYPMLKEALEVMEAWGFKYKSIAFQWIKLNRSGNGKFFGLGRWTRGNTEPCLLAVKGKPSRKSNSVSQLIEYPLGKHSAKPPITRDKIKELMGEECKCLELFARNNIEGWDCWGNEVGKMDEVILEHHHHHH | soluble
